Laboratory results: publication PMC5053906

Experiments:
[1] = molecular target: full length HA-mGluR2 (rat) (UniProt P31421); experiment: co-IP
[2] = molecular target: mGluR2-GFP truncated by removing the entire extracellular domain (rat); experiment: single molecule pull-down
[3] = molecular target: chimera with the ECD of mGluR2 and the TMD (and C-terminal) of mGluR1 (rat); experiment: single molecule subunit counting
[4] = molecular target: chimera with the ECD of mGluR2 and the TMD (and C-terminal) of mGluR1 (rat); experiment: single molecule pull-down
[5] = molecular target: chimera with the ECD of mGluR1 and the TMD (and C-terminal) of mGluR2 (rat); experiment: single molecule subunit counting
[6] = molecular target: chimera with the ECD of mGluR1 and the TMD (and C-terminal) of mGluR2 (rat); experiment: single molecule pull-down

full length HA-mGluR2 (rat), sequence (P31421 19-872): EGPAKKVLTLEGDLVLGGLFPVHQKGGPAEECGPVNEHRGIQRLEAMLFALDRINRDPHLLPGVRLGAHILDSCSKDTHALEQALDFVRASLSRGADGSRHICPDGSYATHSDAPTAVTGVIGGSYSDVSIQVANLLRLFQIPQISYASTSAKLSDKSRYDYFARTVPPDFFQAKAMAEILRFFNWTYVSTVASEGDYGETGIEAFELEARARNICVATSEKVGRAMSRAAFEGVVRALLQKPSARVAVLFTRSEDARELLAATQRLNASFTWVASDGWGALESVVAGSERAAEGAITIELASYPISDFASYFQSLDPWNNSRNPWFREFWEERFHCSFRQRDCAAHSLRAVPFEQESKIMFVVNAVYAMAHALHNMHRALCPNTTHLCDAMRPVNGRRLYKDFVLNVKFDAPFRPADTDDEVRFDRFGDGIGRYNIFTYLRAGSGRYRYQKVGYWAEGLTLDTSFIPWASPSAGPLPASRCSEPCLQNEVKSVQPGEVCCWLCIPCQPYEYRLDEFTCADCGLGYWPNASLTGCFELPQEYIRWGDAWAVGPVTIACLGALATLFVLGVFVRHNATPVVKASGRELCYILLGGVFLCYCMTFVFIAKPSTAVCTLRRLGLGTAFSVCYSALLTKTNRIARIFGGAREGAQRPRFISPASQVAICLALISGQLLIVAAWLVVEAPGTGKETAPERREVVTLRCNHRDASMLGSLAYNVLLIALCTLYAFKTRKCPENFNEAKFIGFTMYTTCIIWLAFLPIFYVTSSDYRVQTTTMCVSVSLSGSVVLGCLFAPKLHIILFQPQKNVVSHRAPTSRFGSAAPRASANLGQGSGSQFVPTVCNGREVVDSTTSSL
mGluR2-GFP truncated by removing the entire extracellular domain (domain or fragment), sequence (P31421 19-872): as above
GFP-tagged isolated ligand binding domain of mGluR2 (domain or fragment), sequence (P31421 19-872): as above

Substance “mGluR2-GFP truncated by removing the entire extracellular domain (domain or fragment)” has a percent of spots bleaching in a single step [1] of 89.6% and a percent of spots bleaching in two steps [2] of 30%.

Work on “GFP-tagged isolated ligand binding domain of mGluR2 (domain or fragment)” yielded a percent of spots bleaching in a single step [1] of 92.4%.

In the case of “chimera with the ECD of mGluR2 and the TMD (and C-terminal) of mGluR1 (receptor)”, the stoichiometry N [3] is reported as 2 and the stoichiometry N [4] is reported as 2.

“chimera with the ECD of mGluR1 and the TMD (and C-terminal) of mGluR2 (receptor)” was tested, and the stoichiometry N [5] was 2 and the stoichiometry N [6] was 2.
